Assay results published in paper PMC10202384.

Molecular target: recombinant monomeric RBD of the SARS-CoV-2 spike protein, tag cleaved, labelled with Alexa Fluor 488 (SARS-CoV-2) (UniProt P0DTC2)
Test: fluorescence polarisation

platelet-derived purified human αIIbβ3 protein (from UniProt P05106 27-788) (complex)
Kd: 0.096 µM
stoichiometry N: 1.3
